Results reported in article PMC2626169 (Developmental biology, 2008).

Key:
[1] = molecular target: T1, SEL-10(G567E) (C. elegans, UniProt Q93794 1-587, G567E); experiment: two-hybrid
T1 sequence (looked up): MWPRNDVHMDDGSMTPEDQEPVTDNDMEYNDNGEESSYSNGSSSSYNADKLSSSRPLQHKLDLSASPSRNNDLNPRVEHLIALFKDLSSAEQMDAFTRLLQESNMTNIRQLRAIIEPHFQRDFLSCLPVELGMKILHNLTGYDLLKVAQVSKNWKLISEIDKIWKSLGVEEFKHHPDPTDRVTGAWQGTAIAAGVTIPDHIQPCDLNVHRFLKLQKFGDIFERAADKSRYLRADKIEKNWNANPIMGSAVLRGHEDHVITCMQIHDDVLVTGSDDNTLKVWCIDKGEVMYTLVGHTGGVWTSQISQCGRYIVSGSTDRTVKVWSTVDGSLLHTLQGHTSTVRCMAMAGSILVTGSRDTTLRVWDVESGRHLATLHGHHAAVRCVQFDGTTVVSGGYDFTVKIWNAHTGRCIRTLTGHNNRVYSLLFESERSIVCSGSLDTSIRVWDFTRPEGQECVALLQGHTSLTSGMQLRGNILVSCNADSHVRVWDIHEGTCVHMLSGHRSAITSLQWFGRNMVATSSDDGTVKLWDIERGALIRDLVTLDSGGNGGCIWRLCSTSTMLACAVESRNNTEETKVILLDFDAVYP

[2] = molecular target: T2, SEL-10, wild type (C. elegans, UniProt Q93794 1-587); experiment: two-hybrid
T2 sequence (looked up): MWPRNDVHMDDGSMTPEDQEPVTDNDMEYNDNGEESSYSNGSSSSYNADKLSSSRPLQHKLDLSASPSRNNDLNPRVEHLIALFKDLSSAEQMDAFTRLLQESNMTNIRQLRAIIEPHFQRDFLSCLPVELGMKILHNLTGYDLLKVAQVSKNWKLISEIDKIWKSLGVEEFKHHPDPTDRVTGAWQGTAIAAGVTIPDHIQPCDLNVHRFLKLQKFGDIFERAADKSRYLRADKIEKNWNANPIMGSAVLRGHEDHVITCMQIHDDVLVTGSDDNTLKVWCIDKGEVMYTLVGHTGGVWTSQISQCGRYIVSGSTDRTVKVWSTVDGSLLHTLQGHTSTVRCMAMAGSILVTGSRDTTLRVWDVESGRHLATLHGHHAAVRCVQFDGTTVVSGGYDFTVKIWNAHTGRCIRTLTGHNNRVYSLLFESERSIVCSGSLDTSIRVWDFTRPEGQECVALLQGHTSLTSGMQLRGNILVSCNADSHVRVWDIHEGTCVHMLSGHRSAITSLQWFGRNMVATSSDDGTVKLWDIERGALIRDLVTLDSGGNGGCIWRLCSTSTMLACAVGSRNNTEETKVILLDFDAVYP

| Binder | beta-galactosidase activity (CPRG), percent of SKR-1/SEL-10 [1] [%] | beta-galactosidase activity (CPRG), percent of SKR-1/SEL-10 [2] [%] |
| --- | --- | --- |
| SKR-1 (Skp1-related 1), wild type (natural protein, C. elegans, UniProt G5ECU1 1-176, looked up) MADQKKVSEAAKEREIKISSSDNEIFLVPRNVIRLSNTINTLLMDLGLDDEEGTNAEPIPVQNVTASILKKVISWCNHHHSDPISTEDSDNREKRTDDIGSWDVEFLKVDQGTLFELILAANYLDIKGLLDVTCKTVANMIKGKSPEEIRRTFNIKNDFTPEEEEQIRKENAWCED | 3 | – |
| SKR-1(M140I) (natural protein, C. elegans, UniProt G5ECU1 1-176, looked up) MADQKKVSEAAKEREIKISSSDNEIFLVPRNVIRLSNTINTLLMDLGLDDEEGTNAEPIPVQNVTASILKKVISWCNHHHSDPISTEDSDNREKRTDDIGSWDVEFLKVDQGTLFELILAANYLDIKGLLDVTCKTVANIIKGKSPEEIRRTFNIKNDFTPEEEEQIRKENAWCED | 0.4 | 37 |
